± gives the half width of the 95% confidence interval.
What was measured:
[1] = folding stability dG unfold from trypsin proteolysis; higher = more stable
In short: (§1)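 Sequencing followed digestion of designed mini-proteins with trypsin and chymotrypsin, each at 11 concentrations in threefold dilutions together with a no-protease condition. The mini-proteins were under 80 residues, had no cysteine, sat in a PA-tagged cDNA display construct, and were kept only if AlphaFold2 dimer inter-PAE was above 15. From the counts, Bayesian fitting gave K50, and unfolding free energy was derived against a sequence-predicted unfolded-state K50 and a shared folded-state K50, per protease or combined.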

[2] = folding stability dG unfold (combined trypsin and chymotrypsin); higher = more stable
In short: as §1

[3] = folding stability dG unfold from chymotrypsin proteolysis; higher = more stable
In short: as §1

Row | Sequence | folding stability dG unfold [1] [kcal/mol] | folding stability dG unfold [2] [kcal/mol] | folding stability dG unfold [3] [kcal/mol]
1 | SAGGSAGGSAGGSLKVEVTLDPETNELTVRTTLTLPPPPPPPPTTTTTTTTTLAPGETASAGGSAGGSAGGS [r10_86_TrROS_Hall] | -0.349 ± 0.43 | 0.0927 ± 0.38 | 0.776 ± 0.22
2 | SAGMVKAKLKVIPVTVDGKPKLYVKVELEIPGGPKFELVFETGSPEKAKELLEKLGLKVKDEDIEIEESSAG [r5_233_TrMRF] | 2.83 ± 0.11 | 3.34 ± 0.18 | 3.69 ± 0.14
3 | SAGGPATLTFEFPAEDGSRVRVEVTVEEVPFVDPRTGEPVAPFLKVHVKVTVFDEDGEAHEAEFELLSAGGS [r8_474_TrMRF] | 2.22 ± 0.043 | 3.73 ± 0.12 | 4.21 ± 0.075
4 | KTKTIVINAKDLTEEQLRELLKKLGVSEEDVEVSEDGKTVVIKIDGVTIVIVASPPKPVVKPDDPEAKKAAS [r1_57_TrROS_Hall] | 1.27 ± 0.051 | 1.61 ± 0.12 | 1.75 ± 0.085
5 | KPKIKITITFNKETGKITITAVNKDNNVVVKTEFELKDGKLTMKIEVKNKKTNKTYTIEIEIKLLKPGEKLS [r1_404_TrROS_Hall] | 2.58 ± 0.19 | 3.86 ± 0.32 | 4.32 ± 0.094
6 | SAGGSAGGSKTILIVLPPGEELTPEQLKALAAALPPDATLTILVYDPETKELHVFTFKLPEGLSAGGSAGGS [r12_913_TrROS_Hall] | 2.99 ± 0.069 | 3.87 ± 0.081 | 4.14 ± 0.054
7 | SAGGSAGGSAGGSKKTIKVRIKIEVDGKTYEITVELPEEGMSLEELLKKFPNAKITEIESAGGSAGGSAGGS [r4_278_TrROS_Hall] | 3.15 ± 0.26 | 3.22 ± 0.23 | 3.08 ± 0.17
8 | SGMPTVTLNVTIEFERERLSFDPKTGKPRLELVKVTKPVTITGFFTSPEEAAAAAEAVRKALEADPEALASA [r9_77_JUSTAS] | 1.7 ± 0.068 | 2.07 ± 0.084 | 2.37 ± 0.034
9 | SAGGMNMKPIKKETFTLPDENGNEVKIEIYKLEDGSYIIKITYPSGKTETFIVPDEETAKNLKIEIKPSAGG [r13_109_TrMRF] | 1.66 ± 0.12 | 2.62 ± 0.18 | 2.91 ± 0.046
10 | SAGGKKVEITIEASPEEAEELAKKLEELFPDVKVEVVEVKPEEPVRVTVRVEVKVELSPEELKKLLESAGGS [r16_180_TrROS_Hall] | 1.45 ± 0.085 | 1.4 ± 0.14 | 1.37 ± 0.11
11 | SLSEEELKKKLEELKKKLKPPKPKVKKVKVKIKNKETNEEIEEEVEIVETPDTVYIYNKKTGKLFKFKIKSA [r9_548_TrROS_Hall] | 0.935 ± 0.11 | 1.73 ± 0.29 | 1.95 ± 0.24
12 | SAGGSAGGRKTRRLVLEVDDIPEGVSAEELTEEELRRLGLPPDARIRVVRRPDGRLLVVIEVRESAGGSAGG [r6_551_TrROS_Hall] | 1.64 ± 0.022 | 2.42 ± 0.051 | 2.71 ± 0.0092
13 | SAGGSFVVIEPTADGVRIVLEDDGALREVPVSPEVAAALAANPDLEGVVRSLLPEGHPIERIAAVPGSAGGS [r16_567_TrMRF] | -0.755 ± 0.24 | -0.451 ± 0.2 | -0.476 ± 0.17
14 | SAGGAEQAREILKEWGFEISEVDPKKKTVQVTPPESGMPISIDVDEPGQIKIKIRMNGKPRTFEIPPSAGGS [r16_197_TrROS] | -0.329 ± 0.24 | -0.215 ± 0.22 | -0.634 ± 0.87
15 | SAGGSAGGSAGGSKKEKYYLVTRIEVEVNGKKYPLGSKLPKNLPPGAKIKIETRIVKLDSAGGSAGGSAGGS [r4_436_TrROS_Hall] | 2.35 ± 0.15 | 1.83 ± 0.25 | 1.58 ± 0.071
16 | SAGGSAGGSAGGFTIKIETRPMPMFSKDGKPLAEMNMYRIKIEVPDMPPGLADKLIDLIQSAGGSAGGSAGG [r7_450_TrROS] | 1.66 ± 0.11 | 2.67 ± 0.22 | 2.67 ± 0.097
17 | SMLKEIPITVPEEGEVVTVNIEELAKEQGLDPNNVTVTVTSSGPGKVYKITISSNGITITEVGNVPTALLSA [r9_819_JUSTAS] | 0.546 ± 0.04 | 0.717 ± 0.081 | 0.684 ± 0.098

— the supplement of paper PMC12764529
